In the experiment the target is HLA-B1501 (purified MHC class I molecule) (human). In words: competition with a radiolabeled probe peptide for purified MHC class I.

For orientation: IC50 means the concentration needed to halve the response being measured. The low end stands for greater potency in that assay, the high end for weaker potency in that assay.

Turning to AVINTTCNYGQ (modifications not checked) [Mtb8.4 5-15 peptide …], the IC50 was 10 nM.
